The target in test [1] is T1, Human ANGPTL4(26-406)-FLAG-His6-Avi (human, UniProt Q9BY76 24-406, biotin on the C-terminal Avi tag in the biotinylated preparations (immobilised form in SET, ELISA and Octet)).
T1 construct: also called full-length human ANGPTL4; hANGPTL4
T1 sequence: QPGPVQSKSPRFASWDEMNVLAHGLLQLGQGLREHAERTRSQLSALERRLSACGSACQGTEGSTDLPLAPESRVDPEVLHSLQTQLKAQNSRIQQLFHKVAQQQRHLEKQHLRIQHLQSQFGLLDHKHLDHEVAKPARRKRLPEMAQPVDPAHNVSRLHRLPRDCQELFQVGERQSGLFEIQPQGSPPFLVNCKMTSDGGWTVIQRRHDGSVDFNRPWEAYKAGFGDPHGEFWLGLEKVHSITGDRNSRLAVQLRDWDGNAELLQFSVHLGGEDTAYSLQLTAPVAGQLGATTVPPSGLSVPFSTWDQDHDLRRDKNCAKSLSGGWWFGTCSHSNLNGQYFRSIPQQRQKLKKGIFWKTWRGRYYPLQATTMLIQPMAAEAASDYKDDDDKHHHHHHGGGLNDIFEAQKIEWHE
Put plainly: SET assay (solution equilibrium titration, MSD), IgG. The procedure:
(§1) SET assays were performed as follows. In a 96-well polypropylene plate, a constant concentration of ANGPTL4 antibody was mixed with different concentrations of non-biotinylated human, cyno, mouse, or rat full-length ANPGLT4 protein, or human ANGPTL4 N-terminal domain protein (5-fold serial dilution) and incubated at 22° C. for 14 hours with constant shaking (300 rpm). On a pre-blocked 384-well streptavidin-coated Meso Scale Discovery (MSD) plate biotinylated ANGPTL4 (full-length human, cyno, mouse, or rat ANGPTL4, or human ANGPTL4 N-terminal domain) protein (1 nM, 15 μL per well) was immobilized and washed thereafter.
(§2) The equilibrium binding reactions (15 μL per well) were applied to the MSD plate with immobilized ANGPTL4 and incubated for 20 min at 22° C. The unbound material was removed by washing the plate 3 times with wash buffer, and the captured antibody was detected by adding Sulfo-tagged goat anti-human IgG (Meso Scale Discovery). After washing MSD read buffer T was added and the plate was developed using a Sector Imager 6000 (Meso Scale Discovery). The data were transferred to Microsoft Excel for analysis and plotted using GraphPad Prism v6. The KD values were determined by fitting the data to the following equation: […]
(§3) where Bₘₐₓ is the signal when no ANGPTL4 protein is present in solution, CAb is the constant concentration of ANGPTL4 antibody in solution, CAg is the concentration of ANGPTL4 in solution, and KD is the equilibrium dissociation constant.

The target of test [2] is T1, Human ANGPTL4(26-406)-FLAG-His6-Avi. Nature of the test: cell-based or functional assay.
Test [3] has the same target. Put plainly: SET assay. The procedure:
as §1, §2, §3

The values below come from patent US20160108110A1 (Novartis, published 2016).

Substitutions are numbered along the chain they refer to.

B1: MOR022768 (antibody, human IgG1, kappa, V domains shown)
VH: EVQLLESGGGLVQPGGSLRLSCAASGFTFSSYYLHWVRQAPGKGLEWVSYISGSGSSTYYADSVKGRFTISRDNSKNTLYLQMNSLRAEDTAVYYCARERSYAHDHWGQGTLVTVSS
VL: DIQMTQSPSSLSASVGDRVTITCRASQDIYIDLNWYQQKPGKAPKLLIYAASKLQSGVPSRFSGSGSGTDFTLTISSLQPEDFATYYCQQGYFLPQTFGQGTKVEIKR
notes: human IgG1
The Kd is the constant that tells how readily two partners part at equilibrium. For the molecule B1, in test [1], the affinity, expressed as Kd, was 4 pM. In addition, the “Reversal of human ANGPTL4 inhibition of human LPL EC50” value in test [2] stood at 2000 pM.

B2: MOR022771 (antibody, human IgG1, kappa, V domains shown)
VH: EVQLLESGGGLVQPGGSLRLSCAASGFTFSSYWMHWVRQAPGKGLEWVSGISYSGSSTNYADSVKGRFTISRDNSKNTLYLQMNSLRAEDTAVYYCARDSYIYDLHWGFDNWGQGTLVTVSS
VL: B1 VL with Y30S, I31S, D32Y, K53R, G91S, F93T, L94H, Q96Y
notes: human IgG1
For B2, in test [1], the Kd amounted to 29 pM. In test [2], the “Reversal of human ANGPTL4 inhibition of human LPL EC50” value is 4000 pM.

B3: MOR023403 (antibody, human IgG1, kappa, V domains shown)
VH: EVQLLESGGGLVQPGGSLRLSCAASGFTFSSYWMHWVRQAPGKGLEWVSVINLGSQAKYAGSVKGRFTISRDNSKNTLYLQMNSLRAEDTAVYYCARDSYIYDLHWGFDNWGQGTLVTVSS
VL: B1 VL with Y30S, I31S, D32Y, K53R, G91S, F93T, L94H, Q96Y
notes: as MOR023400: built on MOR022771, limits derived; the printed CDR is one residue shorter than the parent stretch
Molecule B3 registered a Kd in test [3] of 3 pM.

B4: MOR023406 (antibody, human IgG1, kappa, V domains shown)
VH: B2 VH with G50Y, S52P, S54M, S56P, S57G, T58K, N59F
VL: B1 VL with Y30S, I31S, D32Y, K53R, G91S, F93T, L94H, Q96Y
notes: as MOR023400: built on MOR022771, limits derived
B4 had a Kd in test [3] of 3 pM.

B5: MOR023447 (antibody, human IgG1, kappa, V domains shown)
VH: B1 VH with Y50S, G53S, S54A, S56V, S57Y, T58K, Y59D
VL: B1 VL
notes: as MOR023439: built on MOR022768, limits derived
Consider B5, for which the dissociation constant Kd in test [3] is under 1 pM.

B6: MOR023412 (antibody, human IgG1, kappa, V domains shown)
VH: B2 VH
VL: B1 VL with Y30S, I31S, D32Y, K53R, G91A, F93Y, L94P, Q96Y
notes: as MOR023407: built on MOR022771, limits derived
In test [3], B6 came in with a Kd of 1 pM.

B7: MOR023413 (antibody, human IgG1, kappa, V domains shown)
VH: B2 VH
VL: B1 VL with Y30S, I31S, D32Y, K53R, G91Y, F93Y, L94P, Q96Y
notes: as for B6
In test [3], B7 registered a Kd of under 1 pM.

B8: MOR023411 (antibody, human IgG1, kappa, V domains shown)
VH: B2 VH
VL: B1 VL with Y30S, I31S, D32Y, K53R, G91A, F93Y, L94H, Q96Y
notes: as for B6
The molecule B8 yielded a Kd in test [3] of 2 pM.

B9: MOR023402 (antibody, human IgG1, kappa, V domains shown)
VH: B2 VH with G50V, S52G, S56T, S57H
VL: B1 VL with Y30S, I31S, D32Y, K53R, G91S, F93T, L94H, Q96Y
notes: as for B4
Take B9: binding in test [3] was put at a Kd of 1 pM.

B10: MOR023443 (antibody, human IgG1, kappa, V domains shown)
VH: B1 VH with Y50S, S52A, G53S, G55S, S56P, S57A, Y59H
VL: B1 VL
notes: as for B5
Take B10: the Kd in test [3] was under 1 pM.

B11: MOR023404 (antibody, human IgG1, kappa, V domains shown)
VH: B3 VH with N52P, L53Y, G54M, S55G, Q56T, G61D
VL: B1 VL with Y30S, I31S, D32Y, K53R, G91S, F93T, L94H, Q96Y
notes: as for B3
As for B11, in test [3], the Kd was 8 pM. In other words, the picomolar range.

B12: MOR023446 (antibody, human IgG1, kappa, V domains shown)
VH: B1 VH with Y50S, G53S, S54A, S56H, S57Y, T58I, Y59D
VL: B1 VL
notes: as for B5
With B12, the Kd in test [3] was under 1 pM.

B13: MOR023439 (antibody, human IgG1, kappa, V domains shown)
VH: B1 VH with Y50G, G53S, S54G, S57Y, T58I, Y59N
VL: B1 VL
notes: built on the parent antibody for IgG conversion MOR022768 with residues 48-66 of the heavy chain replaced; Parent Fab MOR021823
Regarding B13, in test [3], the Kd was under 1 pM.

B14: MOR022769 (antibody, human IgG1, kappa, V domains shown)
VH: B1 VH with S54D, G55A
VL: B1 VL
notes: human IgG1
As to B14, in test [1], the Kd was 5 pM. In test [2], the “Reversal of human ANGPTL4 inhibition of human LPL EC50” value amounted to 2000 pM.

B15: MOR023410 (antibody, human IgG1, kappa, V domains shown)
VH: B2 VH
VL: B1 VL with Y30S, I31S, D32Y, K53R, G91A, L94A, Q96Y
notes: as for B6
In test [3], B15 had a dissociation constant Kd of under 1 pM.

B16: MOR022767 (antibody, human IgG1, kappa, V domains shown)
VH: B1 VH with S54E
VL: B1 VL
notes: human IgG1
For the molecule B16, the affinity in test [1], expressed as Kd, was 19 pM. In addition, in test [2], the “Reversal of human ANGPTL4 inhibition of human LPL EC50” value was found to be 2000 pM.

B17: MOR023407 (antibody, human IgG1, kappa, V domains shown)
VH: B2 VH
VL: B1 VL with Y30S, I31S, D32Y, K53R, Q89F, G91M, F93Y, L94H, Q96Y
notes: built on the parent antibody for IgG conversion MOR022771 with residues 89-96 of the light chain replaced; Parent Fab MOR021830 has another HCDR2 (D53) and Q1 in the VH
In turn, B17 gave a Kd in test [3] of 1 pM.

B18: MOR023441 (antibody, human IgG1, kappa, V domains shown)
VH: B1 VH with Y50S, S52A, S54M, S56N, S57Y, T58I, Y59D
VL: B1 VL
notes: as for B5
B18: the Kd in test [3] is under 1 pM.

B19: MOR023448 (antibody, human IgG1, kappa, V domains shown)
VH: B1 VH with Y50S, G53S, S54I, G55S, S56G, S57F, Y59E
VL: B1 VL
notes: as for B5
Regarding B19, the Kd in test [3] was under 1 pM.

B20: MOR023400 (antibody, human IgG1, kappa, V domains shown)
VH: B2 VH with S52P, S54Q, S56P, S57A, T58I
VL: B1 VL with Y30S, I31S, D32Y, K53R, G91S, F93T, L94H, Q96Y
notes: built on the parent antibody for IgG conversion MOR022771 with residues 48-66 of the heavy chain replaced; Parent Fab MOR021830
Turning to B20, the Kd in test [3] amounted to 1 pM.

B21: MOR023416 (antibody, V domains shown)
VH: QVQLLESGGGLVQPGGSLRLSCAASGFTFSDYALHWVRQAPGKGLEWVSRITYTGLYTYYADSVKGRFTISRDNSKNTLYLQMNSLRAEDTAVYYCAREHYYSSPMGGVAVDNWGQGTLVTVSS
VL: DIVLTQPPSVSGAPGQRVTISCSGSSSNIGYNTVSWYQQLPGTAPKLLIYSNNIRPSGVPDRFSGSKSGTSASLAITGLQAEDEADYYCSSWDFLIKSLVFGGGTKLTVL
notes: as MOR023415: built on parent Fab MOR021798, limits derived
In turn, B21 displayed a Kd in test [3] of 1 pM.

B22: MOR023420 (antibody, V domains shown)
VH: B21 VH with T52S, T54M, L56S, Y57S
VL: B21 VL with S90G, W92F, F94W, L95V, I96T, K97S, S98H, L99V
notes: built on parent Fab MOR021798 with LCDR3 residues 90-99 of the VL replaced (last LCDR3 residue V kept)
For the molecule B22, in test [3], the dissociation constant (Kd) was determined as 1 pM.

B23: MOR023418 (antibody, V domains shown)
VH: B21 VH with L56Q, T58K
VL: B21 VL
notes: as for B21
In test [3], B23 displayed a Kd of 19 pM.

B24: MOR023415 (antibody, V domains shown)
VH: B21 VH with L56F, Y59F
VL: B21 VL
notes: built on parent Fab MOR021798 with residues 48-66 of the VH replaced
As to B24, the Kd in test [3] worked out at 1 pM.

B25: MOR023417 (antibody, V domains shown)
VH: B21 VH with L56M, Y57W, Y59E
VL: B21 VL
notes: as for B21
Molecule B25 had a Kd in test [3] of 6 pM. Compared with the last molecule, the Kd is about 6-fold higher.

B26: MOR023419 (antibody, V domains shown)
VH: B21 VH with L56V, Y59G
VL: B21 VL
notes: as for B21
The molecule B26 returned a Kd in test [3] of 2 pM.

B27: MOR022764 (antibody, human IgG1, lambda, V domains shown)
VH: EVQLVQSGAEVKKPGESLKISCKGSGYSFSTYWISWVRQMPGKGLEWMGIIDPSQSDTRYSPSFQGQVTISADKSISTAYLQWSSLKASDTAMYYCARVYGYVYMDVWGQGTLVTVSS
VL: SYELTQPLSVSVALGQTARITCSGDNLGKKYAYWYQQKPGQAPVLVIYDKTKRPSGIPERFSGSNSGNTATLTISRAQAGDEADYYCASYDWYSSSYVFGGGTKLTVLG
notes: human IgG1
B27 returned a Kd in test [1] of 7 pM. In test [2], the “Reversal of human ANGPTL4 inhibition of human LPL EC50” value was determined as 3000 pM.

B28: MOR022766 (antibody, human IgG1, lambda, V domains shown)
VH: B27 VH with Q55N, S56T
VL: B27 VL
notes: human IgG1
For B28, the Kd in test [1] came out at 5 pM. Further, the “Reversal of human ANGPTL4 inhibition of human LPL EC50” value in test [2] came to 3000 pM.
